In data set [1] the target is T1, purified recombinant human HA-tagged EFEMP1/Fibulin-3 (R&D, 8416-FB), Q12805.
T1 chain: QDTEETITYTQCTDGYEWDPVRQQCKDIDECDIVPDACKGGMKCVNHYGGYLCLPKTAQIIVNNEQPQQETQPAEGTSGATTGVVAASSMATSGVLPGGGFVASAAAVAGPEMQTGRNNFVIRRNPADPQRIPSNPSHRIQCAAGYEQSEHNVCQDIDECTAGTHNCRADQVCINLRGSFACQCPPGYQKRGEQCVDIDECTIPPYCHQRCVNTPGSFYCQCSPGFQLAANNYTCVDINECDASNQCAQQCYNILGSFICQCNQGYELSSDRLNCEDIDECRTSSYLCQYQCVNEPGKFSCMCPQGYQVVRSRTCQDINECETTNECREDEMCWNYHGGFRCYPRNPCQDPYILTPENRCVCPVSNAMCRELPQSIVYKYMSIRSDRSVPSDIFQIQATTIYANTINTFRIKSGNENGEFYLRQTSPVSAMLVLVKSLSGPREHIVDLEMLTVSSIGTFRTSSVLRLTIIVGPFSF

For data set [2], the target named is T2, endogenous EFEMP1 (EGF-containing fibulin-like extracellular matrix protein 1, Fibulin-3) secreted by HUVEC, Q12805.
T2 chain: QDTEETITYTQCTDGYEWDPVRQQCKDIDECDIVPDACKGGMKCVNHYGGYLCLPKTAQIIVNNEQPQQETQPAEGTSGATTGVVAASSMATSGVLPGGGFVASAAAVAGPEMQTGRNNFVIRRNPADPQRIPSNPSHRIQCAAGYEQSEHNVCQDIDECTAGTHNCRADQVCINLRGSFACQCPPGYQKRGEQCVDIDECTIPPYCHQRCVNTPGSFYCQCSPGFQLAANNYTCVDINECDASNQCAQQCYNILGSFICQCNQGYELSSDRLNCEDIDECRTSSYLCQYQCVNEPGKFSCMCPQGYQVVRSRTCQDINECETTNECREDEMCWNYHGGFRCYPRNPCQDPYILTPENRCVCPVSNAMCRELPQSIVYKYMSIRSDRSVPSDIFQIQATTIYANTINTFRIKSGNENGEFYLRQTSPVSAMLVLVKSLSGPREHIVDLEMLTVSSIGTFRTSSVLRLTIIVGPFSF

Data set [3] addresses Q68SA9.

B1: purified full-length mouse ADAMTS7 S3A EQ (catalytic mutant E373Q) (protein)
chain: SVAKEKWVETLVVADSKMVEYHGQPQVESYVLTIMNMVAGLFHDPSIGNPIHISIVRLIILEDEEKDLKITHHAEETLKNFCRWQKNINIKGDDHPQHHDTAILLTRKDLCASMNQPCETLGLSHVSGLCHPQLSCSVSEDTGMPLAFTVAHQLGHSFGIQHDGTGNDCESIGKRPFIMSPQLLYDRGIPLTWSRCSREYITRFLDRGWGLCLDDRPSKDVIALPSVLPGVLYDVNHQCRLQYGSHSAYCEDMDDVCHTLWCSVGTTCHSKLDAAVDGTSCGKNKWCLKGECVPEGFQPEAVDGGWSGWSAWSDCSRSCGVGVRSSERQCTQPVPKNRGKYCVGERKRSQLCNLPACPPDRPSFRHTQCSQFDGMLYKGKLHKWVPVPNDDNPCELHCRPSNSSNTEKLRDAVVDGTPCYQSRISRDICLNGICKNVGCDFVIDSGAEEDRCGVCRGDGSTCQTVSRTFKETEGQGYVDIGLIPAGAREILIEEVAEAANFLALRSEDPDKYFLNGGWTIQWNGDYRVAGTTFTYARKGNWENLTSPGPTSEPVWIQLLFQEKNPGVHYQYTIQRDSHDQVRPPEFSWHYGPWSKCTVTCGTGVQRQSLYCMERQAGVVAEEYCNTLNRPDERQRKCSEEPCPPRWWAGEWQPCSRSCGPEGLSRRAVFCIRSMGLDEQRALELSACEHLPRPLAETPCNRHVICPSTWGVGNWSQCSVTCGAGIRQRSVLCINNTDVPCDEAERPITETFCFLQPCQYPMYIVDTGASGSGSSSPELFNEVDFIPNQLAPRPSPASSPKPVSISNAIDEEELDPPGPVFVDDFYYDYNFINFHEDLSYGSFEEPHPDLVDNGGWTAPPHIRPTESPSDTPVPTAGALGAEAEDIQGSWSPSPLLSEASYSPPGLEQTSINPLANFLTEEDTPMGAPELGFPSLPWPPASVDDMMTPVGPGNPDELLVKEDEQSPPSTPWSDRNKLSTDGNPLGHTSPALPQSPIPTQPSPPSISPTQASPSPDVVEVSTGWNAAWDPVLEADLKPGHGELPSTVEVASPPLLPMATVPGIWGRDSPLEPGTPTFSSPELSSQHLKTLTMPGTLLLTVPTDLRSPGPSGQPQTPNLEGTQSPGLLPTPARETQTNSSKDPEVQPLQPSLEEDGDPADPLPARNASWQVGNWSQCSTTCGLGAIWRLVSCSSGNDEDCTLASRPQPARHCHLRPCAAWRTGNWSKCSRNCGGGSSTRDVQCVDTRDLRPLRPFHCQPGPTKPPNRQLCGTQPCLPWYTSSWRECSEACGGGEQQRLVTCPEPGLCEESLRPNNSRPCNTHPCTQWVVGPWGQCSAPCGGGVQRRLVRCVNTQTGLAEEDSDLCSHEAWPESSRPCATEDCELVEPPRCERDRLSFNFCETLRLLGRCQLPTIRAQCCRSCPPLSRGVPSRGHQRVARR
For the protein B1, the “in vitro cleavage, western blot and mass spectrometry of gel bands” value in data set [1] is recorded as “background cleavage under conditions with no enzyme or with ADAMTS7 S3A EQ treatment, however these occurrences were relatively minor compared to the activity stimulated by ADAMTS7 S3A WT”.

B2: full-length mouse Adamts7 1-1857 E373Q catalytic mutant with a carboxyl terminal 3xFLAG tag, expressed from adenovirus (protein)
chain: SVSKEKWVETLVVADSKMVEYHGQPQVESYVLTIMNMVAGLFHDPSIGNPIHISIVRLIILEDEEKDLKITHHAEETLKNFCRWQKNINIKGDDHPQHHDTAILLTRKDLCASMNQPCETLGLSHVSGLCHPQLSCSVSEDTGMPLAFTVAHQLGHSFGIQHDGTGNDCESIGKRPFIMSPQLLYDRGIPLTWSRCSREYITRFLDRGWGLCLDDRPSKDVIALPSVLPGVLYDVNHQCRLQYGSHSAYCEDMDDVCHTLWCSVGTTCHSKLDAAVDGTSCGKNKWCLKGECVPEGFQPEAVDGGWSGWSAWSDCSRSCGVGVRSSERQCTQPVPKNRGKYCVGERKRSQLCNLPACPPDRPSFRHTQCSQFDGMLYKGKLHKWVPVPNDDNPCELHCRPSNSSNTEKLRDAVVDGTPCYQSRISRDICLNGICKNVGCDFVIDSGAEEDRCGVCRGDGSTCQTVSRTFKETEGQGYVDIGLIPAGAREILIEEVAEAANFLALRSEDPDKYFLNGGWTIQWNGDYRVAGTTFTYARKGNWENLTSPGPTSEPVWIQLLFQEKNPGVHYQYTIQRDSHDQVRPPEFSWHYGPWSKCTVTCGTGVQRQSLYCMERQAGVVAEEYCNTLNRPDERQRKCSEEPCPPRWWAGEWQPCSRSCGPEGLSRRAVFCIRSMGLDEQRALELSACEHLPRPLAETPCNRHVICPSTWGVGNWSQCSVTCGAGIRQRSVLCINNTDVPCDEAERPITETFCFLQPCQYPMYIVDTGASGSGSSSPELFNEVDFIPNQLAPRPSPASSPKPVSISNAIDEEELDPPGPVFVDDFYYDYNFINFHEDLSYGSFEEPHPDLVDNGGWTAPPHIRPTESPSDTPVPTAGALGAEAEDIQGSWSPSPLLSEASYSPPGLEQTSINPLANFLTEEDTPMGAPELGFPSLPWPPASVDDMMTPVGPGNPDELLVKEDEQSPPSTPWSDRNKLSTDGNPLGHTSPALPQSPIPTQPSPPSISPTQASPSPDVVEVSTGWNAAWDPVLEADLKPGHGELPSTVEVASPPLLPMATVPGIWGRDSPLEPGTPTFSSPELSSQHLKTLTMPGTLLLTVPTDLRSPGPSGQPQTPNLEGTQSPGLLPTPARETQTNSSKDPEVQPLQPSLEEDGDPADPLPARNASWQVGNWSQCSTTCGLGAIWRLVSCSSGNDEDCTLASRPQPARHCHLRPCAAWRTGNWSKCSRNCGGGSSTRDVQCVDTRDLRPLRPFHCQPGPTKPPNRQLCGTQPCLPWYTSSWRECSEACGGGEQQRLVTCPEPGLCEESLRPNNSRPCNTHPCTQWVVGPWGQCSAPCGGGVQRRLVRCVNTQTGLAEEDSDLCSHEAWPESSRPCATEDCELVEPPRCERDRLSFNFCETLRLLGRCQLPTIRAQCCRSCPPLSRGVPSRGHQRVARR
B2: in data set [2], the “cleavage of endogenous EFEMP1 in HUVEC media, mass spectrometry” value is recorded as “these sites were not detected in the Luc or EQ samples”.

B3: full-length mouse Adamts7 1-1857 WT with a carboxyl terminal 3xFLAG tag, expressed from adenovirus (protein)
chain: SVSKEKWVETLVVADSKMVEYHGQPQVESYVLTIMNMVAGLFHDPSIGNPIHISIVRLIILEDEEKDLKITHHAEETLKNFCRWQKNINIKGDDHPQHHDTAILLTRKDLCASMNQPCETLGLSHVSGLCHPQLSCSVSEDTGMPLAFTVAHELGHSFGIQHDGTGNDCESIGKRPFIMSPQLLYDRGIPLTWSRCSREYITRFLDRGWGLCLDDRPSKDVIALPSVLPGVLYDVNHQCRLQYGSHSAYCEDMDDVCHTLWCSVGTTCHSKLDAAVDGTSCGKNKWCLKGECVPEGFQPEAVDGGWSGWSAWSDCSRSCGVGVRSSERQCTQPVPKNRGKYCVGERKRSQLCNLPACPPDRPSFRHTQCSQFDGMLYKGKLHKWVPVPNDDNPCELHCRPSNSSNTEKLRDAVVDGTPCYQSRISRDICLNGICKNVGCDFVIDSGAEEDRCGVCRGDGSTCQTVSRTFKETEGQGYVDIGLIPAGAREILIEEVAEAANFLALRSEDPDKYFLNGGWTIQWNGDYRVAGTTFTYARKGNWENLTSPGPTSEPVWIQLLFQEKNPGVHYQYTIQRDSHDQVRPPEFSWHYGPWSKCTVTCGTGVQRQSLYCMERQAGVVAEEYCNTLNRPDERQRKCSEEPCPPRWWAGEWQPCSRSCGPEGLSRRAVFCIRSMGLDEQRALELSACEHLPRPLAETPCNRHVICPSTWGVGNWSQCSVTCGAGIRQRSVLCINNTDVPCDEAERPITETFCFLQPCQYPMYIVDTGASGSGSSSPELFNEVDFIPNQLAPRPSPASSPKPVSISNAIDEEELDPPGPVFVDDFYYDYNFINFHEDLSYGSFEEPHPDLVDNGGWTAPPHIRPTESPSDTPVPTAGALGAEAEDIQGSWSPSPLLSEASYSPPGLEQTSINPLANFLTEEDTPMGAPELGFPSLPWPPASVDDMMTPVGPGNPDELLVKEDEQSPPSTPWSDRNKLSTDGNPLGHTSPALPQSPIPTQPSPPSISPTQASPSPDVVEVSTGWNAAWDPVLEADLKPGHGELPSTVEVASPPLLPMATVPGIWGRDSPLEPGTPTFSSPELSSQHLKTLTMPGTLLLTVPTDLRSPGPSGQPQTPNLEGTQSPGLLPTPARETQTNSSKDPEVQPLQPSLEEDGDPADPLPARNASWQVGNWSQCSTTCGLGAIWRLVSCSSGNDEDCTLASRPQPARHCHLRPCAAWRTGNWSKCSRNCGGGSSTRDVQCVDTRDLRPLRPFHCQPGPTKPPNRQLCGTQPCLPWYTSSWRECSEACGGGEQQRLVTCPEPGLCEESLRPNNSRPCNTHPCTQWVVGPWGQCSAPCGGGVQRRLVRCVNTQTGLAEEDSDLCSHEAWPESSRPCATEDCELVEPPRCERDRLSFNFCETLRLLGRCQLPTIRAQCCRSCPPLSRGVPSRGHQRVARR
B3: in data set [3], the “auto-cleavage, western blot of HUVEC media” value was “ADAMTS7 WT migrated at two bands matching the observed autocleavage event in the mucin domain”. Moreover, in data set [2], the “cleavage of endogenous EFEMP1 in HUVEC media, western blot and mass spectrometry” value is “identified semi-tryptic and semi-chymotryptic peptides indicating cleavage at 123.124 and 124.125 sites from the Ad-ADAMTS7 WT sample”; the “relative cleavage at 123.124 against 124.125 (TAILS log FC and total intensities)” value was “predicting 2-3 fold more cleavage at 123.124 (ASAA|AVAG) (SEQ ID NO: 1) compared to the adjacent 124.125 (SAAA|VAGP) (SEQ ID NO: 2) site”.

These data come from patent publication US20240368668.
